Ends that are not written are not given here. * marks the point of attachment. Stearoyl = CCCCCCCCCCCCCCCCCC(=O)*; Palmitoyl = CCCCCCCCCCCCCCCC(=O)*; Myristoyl = CCCCCCCCCCCCCC(=O)*; Lauroyl = CCCCCCCCCCCC(=O)*; Dodecyl = CCCCCCCCCCCC*
B1: AT143 [hGIP(3-30)NH2[M14L; H18K]-C16/18] (peptide)
peptide: EGTFISDYSIALDKIK(Palmitoyl)QQDFVNWLLAQK-NH2
modifications: N-terminus assumed
SMILES: CCCCCCCCCCCCCCCC(=O)NCCCC[C@H](NC(=O)[C@@H](NC(=O)[C@H](CCCCN)NC(=O)[C@H](CC(=O)O)NC(=O)[C@H](CC(C)C)NC(=O)[C@H](C)NC(=O)[C@@H](NC(=O)[C@H](CO)NC(=O)[C@H](Cc1ccc(O)cc1)NC(=O)[C@H](CC(=O)O)NC(=O)[C@H](CO)NC(=O)[C@@H](NC(=O)[C@H](Cc1ccccc1)NC(=O)[C@@H](NC(=O)CNC(=O)[C@@H](N)CCC(=O)O)[C@@H](C)O)[C@@H](C)CC)[C@@H](C)CC)[C@@H](C)CC)C(=O)N[C@@H](CCC(N)=O)C(=O)N[C@@H](CCC(N)=O)C(=O)N[C@@H](CC(=O)O)C(=O)N[C@@H](Cc1ccccc1)C(=O)N[C@H](C(=O)N[C@@H](CC(N)=O)C(=O)N[C@@H](Cc1c[nH]c2ccccc12)C(=O)N[C@@H](CC(C)C)C(=O)N[C@@H](CC(C)C)C(=O)N[C@@H](C)C(=O)N[C@@H](CCC(N)=O)C(=O)N[C@@H](CCCCN)C(N)=O)C(C)C
B2: AT117 [hGIP(3-30)NH2[H18K]-C16/18] (peptide)
peptide: EGTFISDYSIAMDKIK(Palmitoyl)QQDFVNWLLAQK-NH2
modifications: N-terminus assumed
SMILES: CCCCCCCCCCCCCCCC(=O)NCCCC[C@H](NC(=O)[C@@H](NC(=O)[C@H](CCCCN)NC(=O)[C@H](CC(=O)O)NC(=O)[C@H](CCSC)NC(=O)[C@H](C)NC(=O)[C@@H](NC(=O)[C@H](CO)NC(=O)[C@H](Cc1ccc(O)cc1)NC(=O)[C@H](CC(=O)O)NC(=O)[C@H](CO)NC(=O)[C@@H](NC(=O)[C@H](Cc1ccccc1)NC(=O)[C@@H](NC(=O)CNC(=O)[C@@H](N)CCC(=O)O)[C@@H](C)O)[C@@H](C)CC)[C@@H](C)CC)[C@@H](C)CC)C(=O)N[C@@H](CCC(N)=O)C(=O)N[C@@H](CCC(N)=O)C(=O)N[C@@H](CC(=O)O)C(=O)N[C@@H](Cc1ccccc1)C(=O)N[C@H](C(=O)N[C@@H](CC(N)=O)C(=O)N[C@@H](Cc1c[nH]c2ccccc12)C(=O)N[C@@H](CC(C)C)C(=O)N[C@@H](CC(C)C)C(=O)N[C@@H](C)C(=O)N[C@@H](CCC(N)=O)C(=O)N[C@@H](CCCCN)C(N)=O)C(C)C
B3: AT131 [hGIP(3-30)NH2[D15E; H18A]-C16/16] (peptide)
peptide: EGTFISDYSIAMEK(Palmitoyl)IAQQDFVNWLLAQK-NH2
modifications: N-terminus assumed
SMILES: CCCCCCCCCCCCCCCC(=O)NCCCC[C@H](NC(=O)[C@H](CCC(=O)O)NC(=O)[C@H](CCSC)NC(=O)[C@H](C)NC(=O)[C@@H](NC(=O)[C@H](CO)NC(=O)[C@H](Cc1ccc(O)cc1)NC(=O)[C@H](CC(=O)O)NC(=O)[C@H](CO)NC(=O)[C@@H](NC(=O)[C@H](Cc1ccccc1)NC(=O)[C@@H](NC(=O)CNC(=O)[C@@H](N)CCC(=O)O)[C@@H](C)O)[C@@H](C)CC)[C@@H](C)CC)C(=O)N[C@H](C(=O)N[C@@H](C)C(=O)N[C@@H](CCC(N)=O)C(=O)N[C@@H](CCC(N)=O)C(=O)N[C@@H](CC(=O)O)C(=O)N[C@@H](Cc1ccccc1)C(=O)N[C@H](C(=O)N[C@@H](CC(N)=O)C(=O)N[C@@H](Cc1c[nH]c2ccccc12)C(=O)N[C@@H](CC(C)C)C(=O)N[C@@H](CC(C)C)C(=O)N[C@@H](C)C(=O)N[C@@H](CCC(N)=O)C(=O)N[C@@H](CCCCN)C(N)=O)C(C)C)[C@@H](C)CC
B4: AT116 [hGIP(3-30)NH2-C12/18] (peptide)
peptide: EGTFISDYSIAMDKIK(Lauroyl)QQDFVNWLLAQK-NH2
modifications: N-terminus assumed
SMILES: CCCCCCCCCCCC(=O)NCCCC[C@H](NC(=O)[C@@H](NC(=O)[C@H](CCCCN)NC(=O)[C@H](CC(=O)O)NC(=O)[C@H](CCSC)NC(=O)[C@H](C)NC(=O)[C@@H](NC(=O)[C@H](CO)NC(=O)[C@H](Cc1ccc(O)cc1)NC(=O)[C@H](CC(=O)O)NC(=O)[C@H](CO)NC(=O)[C@@H](NC(=O)[C@H](Cc1ccccc1)NC(=O)[C@@H](NC(=O)CNC(=O)[C@@H](N)CCC(=O)O)[C@@H](C)O)[C@@H](C)CC)[C@@H](C)CC)[C@@H](C)CC)C(=O)N[C@@H](CCC(N)=O)C(=O)N[C@@H](CCC(N)=O)C(=O)N[C@@H](CC(=O)O)C(=O)N[C@@H](Cc1ccccc1)C(=O)N[C@H](C(=O)N[C@@H](CC(N)=O)C(=O)N[C@@H](Cc1c[nH]c2ccccc12)C(=O)N[C@@H](CC(C)C)C(=O)N[C@@H](CC(C)C)C(=O)N[C@@H](C)C(=O)N[C@@H](CCC(N)=O)C(=O)N[C@@H](CCCCN)C(N)=O)C(C)C
B5: AT107 [hGIP(3-30)NH2[T5W; D15E; H18A]-C16/16] (peptide)
peptide: EGWFISDYSIAMEK(Palmitoyl)IAQQDFVNWLLAQK-NH2
modifications: N-terminus assumed
SMILES: CCCCCCCCCCCCCCCC(=O)NCCCC[C@H](NC(=O)[C@H](CCC(=O)O)NC(=O)[C@H](CCSC)NC(=O)[C@H](C)NC(=O)[C@@H](NC(=O)[C@H](CO)NC(=O)[C@H](Cc1ccc(O)cc1)NC(=O)[C@H](CC(=O)O)NC(=O)[C@H](CO)NC(=O)[C@@H](NC(=O)[C@H](Cc1ccccc1)NC(=O)[C@H](Cc1c[nH]c2ccccc12)NC(=O)CNC(=O)[C@@H](N)CCC(=O)O)[C@@H](C)CC)[C@@H](C)CC)C(=O)N[C@H](C(=O)N[C@@H](C)C(=O)N[C@@H](CCC(N)=O)C(=O)N[C@@H](CCC(N)=O)C(=O)N[C@@H](CC(=O)O)C(=O)N[C@@H](Cc1ccccc1)C(=O)N[C@H](C(=O)N[C@@H](CC(N)=O)C(=O)N[C@@H](Cc1c[nH]c2ccccc12)C(=O)N[C@@H](CC(C)C)C(=O)N[C@@H](CC(C)C)C(=O)N[C@@H](C)C(=O)N[C@@H](CCC(N)=O)C(=O)N[C@@H](CCCCN)C(N)=O)C(C)C)[C@@H](C)CC

What follows are binders tested against T1, human GIP receptor (human, UniProt P48546 22-466) (assay: cell-based or functional assay).
T1 sequence (looked up): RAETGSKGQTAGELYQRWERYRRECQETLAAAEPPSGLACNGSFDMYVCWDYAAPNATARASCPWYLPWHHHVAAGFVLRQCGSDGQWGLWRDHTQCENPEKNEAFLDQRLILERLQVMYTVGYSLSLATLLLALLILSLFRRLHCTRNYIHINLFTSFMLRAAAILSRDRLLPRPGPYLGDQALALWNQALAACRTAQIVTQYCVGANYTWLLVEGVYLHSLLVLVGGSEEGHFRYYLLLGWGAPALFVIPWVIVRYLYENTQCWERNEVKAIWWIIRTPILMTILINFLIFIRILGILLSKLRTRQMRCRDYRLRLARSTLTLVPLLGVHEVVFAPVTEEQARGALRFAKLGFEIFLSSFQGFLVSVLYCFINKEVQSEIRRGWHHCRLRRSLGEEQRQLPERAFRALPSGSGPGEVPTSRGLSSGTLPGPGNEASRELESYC

Point of comparison: B3, “cAMP agonism, EC50 (log)” value -4.9 log M. Against it:
- EGTFISDYSIAMEKIAQQDFVNWLLAQK(Dodecyl)-NH2 [AT130 [hGIP(3-30)NH2[D15E; H18A]-C12/30]] — lower, -5.1 log M
- EGTFISDYSIAMDKIHQQDFVNWLLAQK(Palmitoyl)-NH2 [AT106 [hGIP(3-30)NH2-C16/30]] — lower, -6.4 log M
- EGTFISDYSIAMDK(Stearoyl)IHQQDFVNWLLAQK-NH2 [AT114 [hGIP(3-30)NH2-C18/16]] — lower, -5.5 log M
- EGTFISDYSIAMDKIHQQDFVNWLLAQK(Myristoyl)-NH2 [AT112 [hGIP(3-30)NH2-C14/30]] — lower, -5.4 log M
- Myristoyl-EGTFISDYSIAMDKIHQQDFVNWLLAQK-NH2 [AT110 [hGIP(3-30)NH2-C14/3]] — lower, -8.4 log M
- B1 — lower, -6.3 log M
- EGTFISDYSIAMDK(Palmitoyl)IHQQDFVNWLLAQK-NH2 [AT105 [hGIP(3-30)NH2-C16/16]] — lower, -5.9 log M
- Stearoyl-EGTFISDYSIAMDKIHQQDFVNWLLAQK-NH2 [AT113 [hGIP(3-30)NH2-C18/3]] — lower, -8 log M
- B5 — lower, -5.9 log M
- EGTFISDYSIAMDKIHQQDFVNWLLAQK(Stearoyl)-NH2 [AT115 [hGIP(3-30)NH2-C18/30]] — lower, -6.9 log M

Point of comparison: B5, “cAMP agonism, Emax” value 23%. Against it:
- EGTFISDYSIAMEKIAQQDFVNWLLAQK(Dodecyl)-NH2 [AT130 [hGIP(3-30)NH2[D15E; H18A]-C12/30]] — higher, 49%
- EGTFISDYSIAMDKIHQQDFVNWLLAQK(Palmitoyl)-NH2 [AT106 [hGIP(3-30)NH2-C16/30]] — higher, 64%
- EGTFISDYSIAMDK(Stearoyl)IHQQDFVNWLLAQK-NH2 [AT114 [hGIP(3-30)NH2-C18/16]] — higher, 39%
- EGTFISDYSIAMDKIHQQDFVNWLLAQK(Myristoyl)-NH2 [AT112 [hGIP(3-30)NH2-C14/30]] — higher, 29%
- Myristoyl-EGTFISDYSIAMDKIHQQDFVNWLLAQK-NH2 [AT110 [hGIP(3-30)NH2-C14/3]] — higher, 64%
- B1 — higher, 40%
- B2 — lower, 0%
- B3 — higher, 35%
- EGTFISDYSIAMDK(Palmitoyl)IHQQDFVNWLLAQK-NH2 [AT105 [hGIP(3-30)NH2-C16/16]] — higher, 34%
- Stearoyl-EGTFISDYSIAMDKIHQQDFVNWLLAQK-NH2 [AT113 [hGIP(3-30)NH2-C18/3]] — higher, 77%
- B4 — lower, 0%
- EGTFISDYSIAMDK(Myristoyl)IHQQDFVNWLLAQK-NH2 [AT111 [hGIP(3-30)NH2-C14/16]] — lower, 0%

Point of comparison: EGTFISDYSIAMDK(Stearoyl)IHQQDFVNWLLAQK-NH2 [AT114 [hGIP(3-30)NH2-C18/16]], “cAMP agonism, nM (EC50)” value 2960 nM. Against it:
- EGTFISDYSIAMEKIAQQDFVNWLLAQK(Dodecyl)-NH2 [AT130 [hGIP(3-30)NH2[D15E; H18A]-C12/30]] — 2.9-fold higher, 8690 nM
- EGTFISDYSIAMDKIHQQDFVNWLLAQK(Palmitoyl)-NH2 [AT106 [hGIP(3-30)NH2-C16/30]] — 7.6-fold lower, 390 nM
- EGTFISDYSIAMDKIHQQDFVNWLLAQK(Myristoyl)-NH2 [AT112 [hGIP(3-30)NH2-C14/30]] — within 1.5-fold, 3950 nM
- Myristoyl-EGTFISDYSIAMDKIHQQDFVNWLLAQK-NH2 [AT110 [hGIP(3-30)NH2-C14/3]] — 820-fold lower, 3.6 nM
- B1 — 5.7-fold lower, 521 nM
- B3 — 4-fold higher, 11800 nM
- EGTFISDYSIAMDK(Palmitoyl)IHQQDFVNWLLAQK-NH2 [AT105 [hGIP(3-30)NH2-C16/16]] — 2.6-fold lower, 1140 nM
- Stearoyl-EGTFISDYSIAMDKIHQQDFVNWLLAQK-NH2 [AT113 [hGIP(3-30)NH2-C18/3]] — 300-fold lower, 9.9 nM
- B5 — 2.3-fold lower, 1300 nM
- EGTFISDYSIAMDKIHQQDFVNWLLAQK(Stearoyl)-NH2 [AT115 [hGIP(3-30)NH2-C18/30]] — 22-fold lower, 134 nM

Point of comparison: EGTFISDYSIAMDK(Stearoyl)IHQQDFVNWLLAQK-NH2 [AT114 [hGIP(3-30)NH2-C18/16]], “cAMP antagonism, log (IC50)” value -7.2 log M. Against it:
- B1 — lower, -7.8 log M
- B2 — lower, -7.8 log M
- B3 — lower, -7.4 log M
- EGTFISDYSIAMDK(Palmitoyl)IHQQDFVNWLLAQK-NH2 [AT105 [hGIP(3-30)NH2-C16/16]] — lower, -7.6 log M
- B4 — lower, -7.9 log M
- B5 — higher, -7.1 log M
- EGTFISDYSIAMDK(Myristoyl)IHQQDFVNWLLAQK-NH2 [AT111 [hGIP(3-30)NH2-C14/16]] — lower, -7.6 log M

Point of comparison: EGTFISDYSIAMDK(Myristoyl)IHQQDFVNWLLAQK-NH2 [AT111 [hGIP(3-30)NH2-C14/16]], “cAMP antagonism, nM (IC50)” value 22 nM. Against it:
- EGTFISDYSIAMDK(Stearoyl)IHQQDFVNWLLAQK-NH2 [AT114 [hGIP(3-30)NH2-C18/16]] — 2.1-fold higher, 46 nM
- B1 — within 1.5-fold, 15.1 nM
- B2 — within 1.5-fold, 15 nM
- B3 — 3-fold higher, 65 nM
- EGTFISDYSIAMDK(Palmitoyl)IHQQDFVNWLLAQK-NH2 [AT105 [hGIP(3-30)NH2-C16/16]] — within 1.5-fold, 24 nM
- B4 — 1.8-fold lower, 12 nM
- B5 — 3.5-fold higher, 77 nM
